Key:
[1] = target: T1, Human-recombinant MMP-2 protein (Homo sapiens, UniProt P08253); experiment: Cleavage assay; type: biochemical; conditions: activated MMP-2 1–5 nM, 370 kBq probe, 37°C, 2 hr, pH 7.5 assay buffer, RP-HPLC, Fig. 3b
T1 construct: purchased R & D Systems, Inc. 902-MP-010
T1 sequence (P08253 110-660): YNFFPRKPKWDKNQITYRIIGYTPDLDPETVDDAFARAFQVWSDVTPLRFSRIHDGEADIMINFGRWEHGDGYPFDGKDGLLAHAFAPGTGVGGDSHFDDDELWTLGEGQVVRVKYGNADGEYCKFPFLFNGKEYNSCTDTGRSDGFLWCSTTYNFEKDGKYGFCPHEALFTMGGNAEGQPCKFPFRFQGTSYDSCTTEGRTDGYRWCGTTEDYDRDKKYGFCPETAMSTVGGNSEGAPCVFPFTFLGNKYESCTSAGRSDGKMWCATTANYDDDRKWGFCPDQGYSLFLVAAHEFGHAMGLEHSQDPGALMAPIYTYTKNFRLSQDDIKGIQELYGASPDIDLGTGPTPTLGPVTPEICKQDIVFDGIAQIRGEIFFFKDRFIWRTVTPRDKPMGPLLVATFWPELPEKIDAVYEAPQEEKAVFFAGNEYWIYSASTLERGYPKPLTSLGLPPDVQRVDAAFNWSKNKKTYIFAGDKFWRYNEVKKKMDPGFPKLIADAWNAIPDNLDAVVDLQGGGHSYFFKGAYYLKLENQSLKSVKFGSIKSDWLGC
Procedure: Human-recombinant MMP-2 protein (902-MP-010, R & D Systems, Inc., Minneapolis, MN USA) was activated with p-aminophenylmercuric acetate (1 mM) in assay buffer (50 mM Tris-HCl, 150 mM NaCl, 10 mM CaCl2, 5 µM ZnCl2, 0.02% Brij 35, pH 7.5). MDAP1000, MDAP3000, and MDAP5000 (370 kBq) were incubated at 37°C for 2 hr with activated MMP-2 (1–5 nM) and a MMP inhibitor (0 or 100 µM, GM6001, Merck KGaA, Darmstadt, Germany). The reaction was quenched by addition of methanol, and the percentage of cleaved peptide was estimated by RP-HPLC.

[2] = type: physicochemical; conditions: pH 7.4
Procedure: The experimental determination of probe partition coefficients (log P values) was performed in 1-octanol and 0.02 M phosphate buffer pH 7.4 where the two phases were pre-saturated with each other. 1-Octanol (200 µl) and phosphate buffer (200 µl) were pipetted into LoBind Eppendorf tubes containing 0.37 MBq of probes. The tube was vortexed for 10 seconds, and centrifuged (5 min, 4000×g). Aliquots (50 µl) from the 1-octanol and buffer phases were transferred into two test tubes for radioactivity counting with a NaI well-type scintillation counter (1470 WIZARD, Perkin Elmer, Kanagawa, Japan). The partition coefficient was calculated using the equation P = (counts/µl in 1-octanol)/(counts/µl in buffer).

[3] = Effective dose estimation (OLINDA); conditions: estimated from mouse biodistribution data (non-decay-corrected time radioactivity curves) with OLINDA
Source text: The effective dose of MDAP3000 was estimated using the area under the non-decay-corrected time radioactivity curves generated from the biodistribution data for each organ with the standard quantitation platform included in Organ Level Internal Dose Assessment software (OLINDA, Vanderbilt University).

Palmitoyl-Dap(p-SCN-Bn-DTPA-^111In)-10-Adc-Gly-Pro-Leu-Gly-Val-Arg-Gly-Lys(ivDde)-PEG1000 [MDAP1000]
Cleavage by MMP-2 [1]: concentration-dependent manner | log P (partition coefficient) [2]: −0.56±0.13

Palmitoyl-Dap(p-SCN-Bn-DTPA-^111In)-10-Adc-Gly-Pro-Leu-Gly-Val-Arg-Gly-Lys(ivDde)-PEG3000 [MDAP3000]
Effective dose [3]: 5.08×10^−2 mSv/MBq | Cleavage by MMP-2 [1]: concentration-dependent manner | log P (partition coefficient) [2]: −0.95±0.12
